Paper PMC9482650, “Quantitative fragmentomics allow affinity mapping of interactomes” (Nature Communications, 2022)

T1: GRIP1_2, Q9Y3R0
T1 sequence (Q9Y3R0 145-248, limits assumed, looked up): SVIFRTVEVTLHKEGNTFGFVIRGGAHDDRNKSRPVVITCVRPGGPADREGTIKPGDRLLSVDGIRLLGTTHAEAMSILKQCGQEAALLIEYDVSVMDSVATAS

T2: GRIP1_3, Q9Y3R0
T2 sequence (Q9Y3R0 247-346, limits assumed, looked up): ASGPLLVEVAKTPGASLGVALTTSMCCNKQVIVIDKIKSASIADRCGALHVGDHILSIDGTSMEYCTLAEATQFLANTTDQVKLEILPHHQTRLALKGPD

T3: MPP7, Q5T2T1
T3 sequence (Q5T2T1 134-230, limits assumed, looked up): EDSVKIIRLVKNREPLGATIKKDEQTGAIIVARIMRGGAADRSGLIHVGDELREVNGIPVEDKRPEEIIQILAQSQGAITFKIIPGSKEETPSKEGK

T4: LIN7C, Q9NUP9
T4 sequence (Q9NUP9 88-185, limits assumed, looked up): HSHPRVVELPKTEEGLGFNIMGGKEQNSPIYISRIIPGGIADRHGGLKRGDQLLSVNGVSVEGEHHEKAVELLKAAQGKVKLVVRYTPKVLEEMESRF

T5: SYNJ2BP, P57105
T5 sequence (P57105 8-110, limits assumed, looked up): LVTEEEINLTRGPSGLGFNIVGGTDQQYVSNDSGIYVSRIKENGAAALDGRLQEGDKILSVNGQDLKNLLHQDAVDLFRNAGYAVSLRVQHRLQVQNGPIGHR

T6: TJP3_3, O95049
T6 sequence (O95049 375-456, limits assumed, looked up): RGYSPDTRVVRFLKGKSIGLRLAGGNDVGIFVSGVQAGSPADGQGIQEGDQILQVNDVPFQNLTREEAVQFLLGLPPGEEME

T7: GRIP1_5, Q9Y3R0
T7 sequence (Q9Y3R0 568-668, limits assumed, looked up): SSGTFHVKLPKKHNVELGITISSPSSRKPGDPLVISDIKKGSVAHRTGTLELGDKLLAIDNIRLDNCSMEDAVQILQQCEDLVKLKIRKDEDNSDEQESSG

T8: DFNB31_3, Q9P202
T8 sequence (Q9P202 811-907, limits assumed, looked up): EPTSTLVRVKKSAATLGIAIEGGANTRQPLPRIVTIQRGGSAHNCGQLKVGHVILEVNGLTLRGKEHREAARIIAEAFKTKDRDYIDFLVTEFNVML

T9: CARD11, Q9BXL7
T9 sequence (Q9BXL7 662-765, limits assumed, looked up): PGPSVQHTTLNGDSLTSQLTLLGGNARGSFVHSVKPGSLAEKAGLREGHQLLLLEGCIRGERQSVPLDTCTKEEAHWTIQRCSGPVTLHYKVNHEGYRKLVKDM

T10: APBA1_2, Q02410
T10 sequence (Q02410 742-832, limits assumed, looked up): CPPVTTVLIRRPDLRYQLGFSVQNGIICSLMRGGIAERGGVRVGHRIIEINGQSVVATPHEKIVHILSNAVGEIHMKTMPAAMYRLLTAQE


Assays:
Test in all cases: holdup assay
Design in all cases: key: below the threshold = too weak to quantify, mostly under pKd 3.1 to 4
Details in all cases: plain residues with an end cap or a label only (N-terminal biotin on a linker: ado-ado)
[1] = target: T1, GRIP1_2, Q9Y3R0
[2] = target: T2, GRIP1_3, Q9Y3R0
[3] = target: DLG4_3, P78352
[4] = target: T3, MPP7, Q5T2T1
[5] = target: T4, LIN7C, Q9NUP9
[6] = target: GORASP2, Q9H8Y8
[7] = target: HTRA2, O43464
[8] = target: T5, SYNJ2BP, P57105
[9] = target: MAGI2_2, Q86UL8
[10] = target: SCRIB_2, Q14160
[11] = target: T6, TJP3_3, O95049
[12] = target: GRID2IP_1, A4D2P6
[13] = target: DLG1_3, Q12959
[14] = target: SCRIB_1, Q14160
[15] = target: LAP2, Q96RT1
[16] = target: T7, GRIP1_5, Q9Y3R0
[17] = target: SNX27, Q96L92
[18] = target: PDZRN4_1, Q6ZMN7
[19] = target: T8, DFNB31_3, Q9P202
[20] = target: FRMPD3, Q5JV73
[21] = target: GRIP2_7, Q9C0E4
[22] = target: T9, CARD11, Q9BXL7
[23] = target: T10, APBA1_2, Q02410
[24] = target: AHNAK1, Q09666
[25] = target: TJP2_1, Q9UDY2
[26] = target: MAGI2_4, Q86UL8
[27] = target: GRIP2_3, Q9C0E4
Sequence of GRIP2_3, Q9C0E4 (Q9C0E4 238-339): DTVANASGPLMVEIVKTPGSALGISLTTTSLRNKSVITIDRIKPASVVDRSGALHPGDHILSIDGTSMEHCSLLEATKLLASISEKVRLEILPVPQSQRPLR

Sequence of PDZRN4_1, Q6ZMN7 (Q6ZMN7 213-318): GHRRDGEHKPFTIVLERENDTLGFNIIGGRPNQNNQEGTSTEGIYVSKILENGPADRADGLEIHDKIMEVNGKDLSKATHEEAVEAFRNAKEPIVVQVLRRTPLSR
Sequence of SCRIB_2, Q14160 (Q14160 857-960): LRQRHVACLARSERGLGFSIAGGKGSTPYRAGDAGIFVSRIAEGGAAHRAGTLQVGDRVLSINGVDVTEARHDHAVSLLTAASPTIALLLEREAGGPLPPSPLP
Sequence of AHNAK1, Q09666 (Q09666 4-100): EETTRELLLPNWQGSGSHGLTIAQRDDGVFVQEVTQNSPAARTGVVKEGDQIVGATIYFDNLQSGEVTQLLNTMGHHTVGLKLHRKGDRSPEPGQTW
Sequence of SCRIB_1, Q14160 (Q14160 718-814): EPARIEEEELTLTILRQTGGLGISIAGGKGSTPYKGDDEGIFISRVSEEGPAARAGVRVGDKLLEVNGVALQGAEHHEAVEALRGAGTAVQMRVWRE
Sequence of TJP2_1, Q9UDY2 (Q9UDY2 24-128): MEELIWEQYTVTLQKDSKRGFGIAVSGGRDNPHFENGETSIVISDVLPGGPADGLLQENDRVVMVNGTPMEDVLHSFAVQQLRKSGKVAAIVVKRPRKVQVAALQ
Sequence of FRMPD3, Q5JV73 (Q5JV73 12-100): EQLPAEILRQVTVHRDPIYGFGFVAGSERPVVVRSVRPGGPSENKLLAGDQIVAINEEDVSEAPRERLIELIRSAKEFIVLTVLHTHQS
Sequence of GRID2IP_1, A4D2P6 (A4D2P6 1-87): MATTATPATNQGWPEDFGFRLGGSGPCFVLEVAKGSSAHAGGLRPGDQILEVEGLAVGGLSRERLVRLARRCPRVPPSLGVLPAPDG
Sequence of MAGI2_4, Q86UL8 (Q86UL8 772-865): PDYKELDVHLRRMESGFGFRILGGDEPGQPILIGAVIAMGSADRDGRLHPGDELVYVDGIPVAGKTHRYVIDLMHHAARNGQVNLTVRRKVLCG
Sequence of HTRA2, O43464 (O43464 355-458): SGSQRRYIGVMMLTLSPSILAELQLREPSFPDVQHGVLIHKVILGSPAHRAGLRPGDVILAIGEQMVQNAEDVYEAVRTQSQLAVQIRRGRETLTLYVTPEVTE
Sequence of MAGI2_2, Q86UL8 (Q86UL8 410-522): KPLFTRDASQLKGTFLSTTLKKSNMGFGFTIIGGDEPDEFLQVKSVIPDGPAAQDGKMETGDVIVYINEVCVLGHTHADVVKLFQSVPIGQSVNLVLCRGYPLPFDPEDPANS
Sequence of DLG1_3, Q12959 (Q12959 457-571): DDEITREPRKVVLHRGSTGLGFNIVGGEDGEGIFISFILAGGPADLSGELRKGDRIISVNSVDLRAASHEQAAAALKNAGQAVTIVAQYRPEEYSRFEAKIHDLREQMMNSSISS
Sequence of DLG4_3, P78352 (P78352 306-403): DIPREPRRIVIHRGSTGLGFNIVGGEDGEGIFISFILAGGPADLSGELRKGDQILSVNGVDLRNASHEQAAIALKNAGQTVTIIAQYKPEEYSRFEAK
Sequence of LAP2, Q96RT1 (Q96RT1 other isoform, or with tags, fused parts or gaps): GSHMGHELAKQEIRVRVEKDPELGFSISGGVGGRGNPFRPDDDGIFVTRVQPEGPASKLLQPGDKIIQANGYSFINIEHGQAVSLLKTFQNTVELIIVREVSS
Sequence of GRIP2_7, Q9C0E4 (Q9C0E4 934-1023): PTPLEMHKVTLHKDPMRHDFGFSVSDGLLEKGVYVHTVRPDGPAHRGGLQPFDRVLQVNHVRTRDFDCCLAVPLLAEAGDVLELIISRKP

Row | Binder | pKd [1] | pKd [2] | pKd [3] | pKd [4] | pKd [5] | pKd [6] | pKd [7] | pKd [8] | pKd [9] | pKd [10] | pKd [11] | pKd [12] | pKd [13] | pKd [14] | pKd [15] | pKd [16] | pKd [17] | pKd [18] | pKd [19] | pKd [20] | also measured
1 | QSARLWETSI [ADAM22, Q9P0K1] | below the threshold | below the threshold | 4.23 | 4.22 | 4.5 | 3.55 | below the threshold | 5.2 | 3.72 | 4.71 | below the threshold | below the threshold | 4.66 | 5.23 | 3.96 | below the threshold | 5.41 | 5 | 4.2 | below the threshold | pKd [21]: below the threshold; pKd [22]: below the threshold; pKd [23]: below the threshold; pKd [24]: below the threshold; pKd [25]: below the threshold; pKd [26]: below the threshold; pKd [27]: below the threshold
2 | QSPANIYYKV [EFNB1, P52799] | below the threshold | below the threshold | below the threshold | 3.61 | below the threshold | 5.16 | 4.18 | below the threshold | below the threshold | below the threshold | below the threshold | below the threshold | below the threshold | below the threshold | below the threshold | below the threshold | below the threshold | below the threshold | below the threshold | below the threshold | pKd [21]: 4.34; pKd [22]: below the threshold; pKd [23]: below the threshold; pKd [24]: below the threshold; pKd [25]: below the threshold; pKd [26]: below the threshold; pKd [27]: below the threshold
3 | SAAKVLTSMC [GHRHR, Q02643] | below the threshold | below the threshold | below the threshold | below the threshold | below the threshold | below the threshold | below the threshold | 3.59 | below the threshold | below the threshold | below the threshold | below the threshold | 3.6 | 4.58 | below the threshold | below the threshold | 5.16 | below the threshold | 4.09 | below the threshold | pKd [21]: below the threshold; pKd [22]: below the threshold; pKd [23]: below the threshold; pKd [24]: below the threshold; pKd [25]: 3.6; pKd [26]: below the threshold; pKd [27]: below the threshold
4 | TLPRKRMSSI [GPRC6A, Q5T6X5] | below the threshold | below the threshold | below the threshold | below the threshold | below the threshold | below the threshold | below the threshold | below the threshold | 3.82 | below the threshold | below the threshold | below the threshold | below the threshold | below the threshold | 3.86 | below the threshold | below the threshold | below the threshold | below the threshold | below the threshold | pKd [21]: below the threshold; pKd [22]: below the threshold; pKd [23]: below the threshold; pKd [24]: below the threshold; pKd [25]: below the threshold; pKd [26]: below the threshold; pKd [27]: below the threshold
